How the values were obtained:
Experiment in all cases: sandwich ELISA (rabbit anti-L1 capture)
[1] = target: T1, HPV52L1 (human papillomavirus type 52, UniProt Q05138 27-529)
T1 sequence: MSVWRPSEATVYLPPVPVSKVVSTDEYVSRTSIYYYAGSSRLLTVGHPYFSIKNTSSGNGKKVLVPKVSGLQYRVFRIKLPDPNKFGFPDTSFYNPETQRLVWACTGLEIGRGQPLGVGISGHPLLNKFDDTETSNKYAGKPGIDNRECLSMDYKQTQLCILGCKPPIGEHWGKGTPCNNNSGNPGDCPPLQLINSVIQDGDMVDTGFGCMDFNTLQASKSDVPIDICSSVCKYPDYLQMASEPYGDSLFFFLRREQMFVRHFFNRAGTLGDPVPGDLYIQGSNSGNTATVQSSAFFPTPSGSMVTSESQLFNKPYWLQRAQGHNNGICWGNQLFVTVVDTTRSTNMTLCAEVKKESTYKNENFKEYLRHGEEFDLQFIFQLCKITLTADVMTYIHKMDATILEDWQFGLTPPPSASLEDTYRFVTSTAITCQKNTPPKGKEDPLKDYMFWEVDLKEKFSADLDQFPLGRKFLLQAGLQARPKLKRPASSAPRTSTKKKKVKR

[2] = target: T2, HPV11L1 (human papillomavirus type 11, UniProt P04012 1-501)
T2 sequence: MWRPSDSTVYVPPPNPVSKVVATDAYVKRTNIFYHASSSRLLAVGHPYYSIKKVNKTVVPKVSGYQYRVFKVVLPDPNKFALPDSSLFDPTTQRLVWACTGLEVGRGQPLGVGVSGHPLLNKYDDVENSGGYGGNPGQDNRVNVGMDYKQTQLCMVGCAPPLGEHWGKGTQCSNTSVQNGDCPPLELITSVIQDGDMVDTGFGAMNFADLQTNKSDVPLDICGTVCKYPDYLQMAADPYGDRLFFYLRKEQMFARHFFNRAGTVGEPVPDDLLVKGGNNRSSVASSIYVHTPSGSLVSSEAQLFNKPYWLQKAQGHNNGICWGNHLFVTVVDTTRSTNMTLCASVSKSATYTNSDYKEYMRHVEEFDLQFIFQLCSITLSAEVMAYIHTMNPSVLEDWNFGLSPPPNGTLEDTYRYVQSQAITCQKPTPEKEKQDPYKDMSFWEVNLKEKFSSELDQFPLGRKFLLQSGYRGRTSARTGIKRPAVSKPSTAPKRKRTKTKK

[3] = target: T3, HPV33L1 (human papillomavirus type 33, UniProt P06416 1-499)
T3 sequence: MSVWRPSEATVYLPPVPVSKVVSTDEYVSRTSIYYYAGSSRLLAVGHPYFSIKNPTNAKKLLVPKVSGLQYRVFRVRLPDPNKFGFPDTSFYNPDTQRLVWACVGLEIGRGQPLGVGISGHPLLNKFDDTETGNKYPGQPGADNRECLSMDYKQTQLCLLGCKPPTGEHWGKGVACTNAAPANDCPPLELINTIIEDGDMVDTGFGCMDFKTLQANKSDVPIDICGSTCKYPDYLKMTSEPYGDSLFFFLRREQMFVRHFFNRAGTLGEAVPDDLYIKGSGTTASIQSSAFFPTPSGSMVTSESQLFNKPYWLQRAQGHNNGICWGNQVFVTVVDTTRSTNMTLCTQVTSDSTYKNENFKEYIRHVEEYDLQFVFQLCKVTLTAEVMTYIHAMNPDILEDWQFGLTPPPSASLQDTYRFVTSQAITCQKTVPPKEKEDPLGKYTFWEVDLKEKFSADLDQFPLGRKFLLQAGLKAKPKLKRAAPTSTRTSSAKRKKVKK

B1: HPV 59编号为30单克隆抗体 (antibody, V domains shown)
VH: QIQLVQSGPELKKPGETVKISCKASGYTFTDYSMHWVKQAPGKGLKWMGWINTETGEPTYADDFKGRFAFSLETSASTAYLQINNLKIEDTATYFCTRDGYVWYFDVWGAGTTVTVSS
VL: QIVLSQSPAILSASPGEKVTMTCRASSSVNYMHWYQQKPGSSPKPWIYATSNLASGVPARFSGSGSGTSYSLTISRVEAEDAATYYCQQWSSNPIFTFGSGTKLEIK
notes: Mouse hybridoma antibody tested as cell supernatant; also called 59H30
binding result [1]: no binding (tested: 原液40μg/ml; 细胞上清1:100)
binding result [2]: no binding (tested: 原液40μg/ml; 细胞上清1:100)
binding result [3]: no binding (tested: 原液40μg/ml; 细胞上清1:100)

— CN117736312A (SHANGHAI BOVAX BIOLOGICAL SCIENCE & TECH CO LTD, dated 2024)
